The results in this text go back to US20110081661A1, “Modified photoproteins with increased affinity for calcium and enhanced bioluminescence and uses thereof” (Millipore Corporation, priority 2009, published 2011).

For one experiment, the target named is T1, GIP Receptor (Homo sapiens, UniProt P48546).
T1 construct: host or cells: HEK293T
T1 sequence (P48546 22-466): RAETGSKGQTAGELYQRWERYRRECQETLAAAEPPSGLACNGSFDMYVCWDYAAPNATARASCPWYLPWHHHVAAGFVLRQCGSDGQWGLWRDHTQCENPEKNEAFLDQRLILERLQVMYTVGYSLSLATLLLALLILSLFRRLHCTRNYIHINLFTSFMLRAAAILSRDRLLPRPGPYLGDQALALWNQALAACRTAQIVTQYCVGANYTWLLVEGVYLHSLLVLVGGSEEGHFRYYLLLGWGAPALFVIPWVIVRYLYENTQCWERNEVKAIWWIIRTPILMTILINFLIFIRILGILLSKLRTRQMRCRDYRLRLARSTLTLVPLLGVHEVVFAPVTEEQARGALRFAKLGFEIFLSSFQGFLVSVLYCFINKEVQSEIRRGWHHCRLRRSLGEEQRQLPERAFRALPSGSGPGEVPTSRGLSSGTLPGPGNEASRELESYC
The experiment is described as follows: GIP receptor-mediated bioluminescence in HEK293T cells with chimeric promiscuous G protein (FIG. 5, Table II). The format is cell-based. The following applies: for Max signal with GIP (RLU × 10^−5) / EC50: HEK293T cells, GIP Receptor + promiscuous G protein; for EC50: luminescence vs GIP concentration; for % GPCR/total: signal induced by maximal GIP (1 μM) as percentage of signal induced by Triton X-100 with 1 mM Ca^2+; for Signal: background with GIP: signal induced by maximal GIP (1 μM) divided by signal induced by buffer alone. The procedure: However, coexpression of GIP receptor with a chimeric G protein containing sequences from Gαs and Gαq enable the GIP receptor to stimulate calcium flux.
The results of the dose response curve to varying concentrations of GIP with a subset of the photoproteins are summarized in FIG. 5.
(§1) Signal to background ratio was calculated as the signal induced by maximal GIP (1 μM) divided by the signal induced by buffer alone. The EC50 value for calcium was determined as described above for FIG. 2 for mitochondrially targeted photoproteins transfected into HEK293T cells in the absence of a cotransfected GPCR or G protein. Affinity for calcium was correlated with the properties of the amino acid side chain at residue 168 of Clytin.
The EC50 value for receptor-mediated calcium flux induced by the ligand was determined by plotting luminescence (Y-axis) versus ligand concentration applied to the cells (X-axis), and applying a sigmoidal dose-response curve-fitting algorithm (GraphPad Prism). GPCR-mediated signals of the various modified forms of Clytin having an amino acid substitution at position 168 were also related to the nature of the side chain. In addition, the subcellular location of the photoproteins (cytosolic vs mitochondrial) appeared to have an effect on GPCR-mediated signals. […] All of the other mitochondrially targeted mutants except for Clytin K168R and wild-type Clytin yielded results that were in the range of those observed for wt-Aequorin.

Experiment [1] is described as follows: Calcium EC50 of mitochondrially targeted photoproteins in HEK293T cells without cotransfected GPCR or G protein (Table II). The following applies: no cotransfected GPCR or G protein. The format is cell-based.
Source text: In an exemplary experiment, HEK293T cells (ATCC-CRL-11268) were transiently co-transfected with 2 μgs of each of pcDNA3.1-H1 (containing the cDNA encoding the H1 histamine receptor) and pcDNA3.1 containing the cDNAs encoding wild type mitochondrial Clytin (referred to as mt-Clytin), modified mitochondrial Clytin having a lysine to aspartic acid mutation at position 168 (referred to as mt-Clytin K168D), modified mitochondrial Clytin having a lysine to glutamic acid mutation at position 168 (referred to as mt-Clytin K168E), wild-type mitochondrial Obelin (referred to as mt-Obelin) or wild type mitochondrial Aequorin (referred to as mt-Aequorin) using the Targefect-293 reagent (TARGETING SYSTEMS). 48 hours later, the cells were detached using Accutase (MILLIPORE), centrifuged, and resuspended in […] in FreeStyle293 media (INVITROGEN), for incubation for 3-4 hours at room temperature in the dark. After incubation, the cells were centrifuged and resuspended in HBSS/HEPES buffer without Ca^2+ at a density of 1×10^6 cells/ml. Next, 100 μl/well of cell suspension for each transfection were added by the use of a Victor2 luminometer plate reader (WALLAC, […]), to a 96-well plate containing 50 μL/well Triton X-100 in MOPS/KCl buffer containing 10 mM EGTA and a series of Ca^2+ concentrations, such that free calcium concentrations ranged from 17 nM to 39.6 μM, followed by for measurement of total bioluminescence at 20 seconds.
as §1

B1: Cyto-obelin: Wild-type Obelin (wt-Obelin) amino acid sequence, SEQ ID NO:4; cytosolic (protein, listed as Obelia longissima)
chain: MSSKYAVKLKTDFDNPRWIKRHKHMFDFLDINGNGKITLDEIVSKASDDICAKLEATPEQTKRHQVCVEAFFRGCGMEYGKEIAFPQFLDGWKQLATSELKKWARNEPTLIREWGDAVFDIFDKDGSGTITLDEWKAYGKISGISPSQEDCEATFRHCDLDNSGDLDVDEMTRQHLGFWYTLDPEADGLYGNGVP
What is called EC50 is the concentration needed to bring the measured effect to its halfway point. For B1, in the experiment with GIP Receptor, the “Max signal with GIP (RLU × 10^−5)” value came out at 1.80 RLU × 10^−5, the 50% effective concentration (EC50) worked out at 9.86 nM, the “% GPCR/total” value turned out to be 56.7% and the “Signal: background with GIP” value is 47.

B2: K168T (protein)
chain: MADTASKYAVKLRPNFDNPKWVNRHKFMFNFLDINGDGKITLDEIVSKASDDICAKLGATPEQTKRHQDAVEAFFKKIGMDYGKEVEFPAFVDGWKELANYDLKLWSQNKKSLIRDWGEAVFDIFDKDGSGSISLDEWKAYGRISGICSSDEDAEKTFKHCDLDNSGTLDVDEMTRQHLGFWYTLDPNADGLYGNFVP
Take B2: in experiment [1], the EC50 worked out at 174 nM.

B3: K168G (protein)
chain: MADTASKYAVKLRPNFDNPKWVNRHKFMFNFLDINGDGKITLDEIVSKASDDICAKLGATPEQTKRHQDAVEAFFKKIGMDYGKEVEFPAFVDGWKELANYDLKLWSQNKKSLIRDWGEAVFDIFDKDGSGSISLDEWKAYGRISGICSSDEDAEKTFKHCDLDNSGGLDVDEMTRQHLGFWYTLDPNADGLYGNFVP
Take B3: the “Calcium EC50 (nM)” value in experiment [1] is listed as “calcium affinities comparable to wild-type Aequorin, however, better than wt-Clytin”.

B4: K168E (protein)
chain: MADTASKYAVKLRPNFDNPKWVNRHKFMFNFLDINGDGKITLDEIVSKASDDICAKLGATPEQTKRHQDAVEAFFKKIGMDYGKEVEFPAFVDGWKELANYDLKLWSQNKKSLIRDWGEAVFDIFDKDGSGSISLDEWKAYGRISGICSSDEDAEKTFKHCDLDNSGELDVDEMTRQHLGFWYTLDPNADGLYGNFVP
Turning to B4, the EC50 in experiment [1] was 176 nM.

B5: wild-type Clytin (protein, listed as Clytia gregaria)
chain: MADTASKYAVKLRPNFDNPKWVNRHKFMFNFLDINGDGKITLDEIVSKASDDICAKLGATPEQTKRHQDAVEAFFKKIGMDYGKEVEFPAFVDGWKELANYDLKLWSQNKKSLIRDWGEAVFDIFDKDGSGSISLDEWKAYGRISGICSSDEDAEKTFKHCDLDNSGKLDVDEMTRQHLGFWYTLDPNADGLYGNFVP
For B5, the concentration for a half-maximal effect (EC50) in experiment [1] was determined as 545 nM.

B6: K168S (protein)
chain: MADTASKYAVKLRPNFDNPKWVNRHKFMFNFLDINGDGKITLDEIVSKASDDICAKLGATPEQTKRHQDAVEAFFKKIGMDYGKEVEFPAFVDGWKELANYDLKLWSQNKKSLIRDWGEAVFDIFDKDGSGSISLDEWKAYGRISGICSSDEDAEKTFKHCDLDNSGSLDVDEMTRQHLGFWYTLDPNADGLYGNFVP
On to B6, for which the “Calcium EC50 (nM)” value in experiment [1] is “calcium affinities comparable to wild-type Aequorin, however, better than wt-Clytin”.

B7: Cyto-clytin K168E: K168E modified Clytin amino acid sequence, SEQ ID NO:11; cytosolic (protein)
chain: MADTASKYAVKLRPNFDNPKWVNRHKFMFNFLDINGDGKITLDEIVSKASDDICAKLGATPEQTKRHQDAVEAFFKKIGMDYGKEVEFPAFVDGWKELANYDLKLWSQNKKSLIRDWGEAVFDIFDKDGSGSISLDEWKAYGRISGICSSDEDAEKTFKHCDLDNSGELDVDEMTRQHLGFWYTLDPNADGLYGNFVP
Take B7: in the experiment with GIP Receptor, the “Max signal with GIP (RLU × 10^−5)” value was determined as 6.47 RLU × 10^−5, the half-maximal effective concentration (EC50) came to 7.9 nM, the “% GPCR/total” value is recorded as 26.2% and the “Signal: background with GIP” value is given as 66.4.

B8: Mt-clytin K168S: Mitochondrial K168S modified Clytin, SEQ ID NO:22 (protein)
chain: MSVLTPLLLRGLTGSARRLPVPRAKIHSLPPEGKLRPNFDNPKWVNRHKFMFNFLDINGDGKITLDEIVSKASDDICAKLGATPEQTKRHQDAVEAFFKKIGMDYGKEVEFPAFVDGWKELANYDLKLWSQNKKSLIRDWGEAVFDIFDKDGSGSISLDEWKAYGRISGICSSDEDAEKTFKHCDLDNSGSLDVDEMTRQHLGFWYTLDPNADGLYGNFVP
In the case of B8, the EC50 in experiment [1] turned out to be 228 nM. For the same molecule, in the experiment with GIP Receptor, the “Max signal with GIP (RLU × 10^−5)” value is reported as 3.84 RLU × 10^−5, the EC50 turned out to be 15.4 nM, the “% GPCR/total” value stood at 20.3% and the “Signal: background with GIP” value is recorded as 124.1.

B9: Mt-clytin K168N: Mitochondrial K168N modified Clytin, SEQ ID NO:18 (protein)
chain: MSVLTPLLLRGLTGSARRLPVPRAKIHSLPPEGKLRPNFDNPKWVNRHKFMFNFLDINGDGKITLDEIVSKASDDICAKLGATPEQTKRHQDAVEAFFKKIGMDYGKEVEFPAFVDGWKELANYDLKLWSQNKKSLIRDWGEAVFDIFDKDGSGSISLDEWKAYGRISGICSSDEDAEKTFKHCDLDNSGNLDVDEMTRQHLGFWYTLDPNADGLYGNFVP
On to B9, for which the EC50 in experiment [1] was 358 nM. Also, in the experiment with GIP Receptor, the “Max signal with GIP (RLU × 10^−5)” value turned out to be 3.82 RLU × 10^−5, the EC50 was 21 nM, the “% GPCR/total” value is 10.7% and the “Signal: background with GIP” value came to 115.9.

B10: Mt-clytin K168T: Mitochondrial K168T modified Clytin, SEQ ID NO:24 (protein)
chain: MSVLTPLLLRGLTGSARRLPVPRAKIHSLPPEGKLRPNFDNPKWVNRHKFMFNFLDINGDGKITLDEIVSKASDDICAKLGATPEQTKRHQDAVEAFFKKIGMDYGKEVEFPAFVDGWKELANYDLKLWSQNKKSLIRDWGEAVFDIFDKDGSGSISLDEWKAYGRISGICSSDEDAEKTFKHCDLDNSGTLDVDEMTRQHLGFWYTLDPNADGLYGNFVP
Turning to B10, the EC50 in experiment [1] was determined as 174 nM. In the experiment with GIP Receptor, the “Max signal with GIP (RLU × 10^−5)” value was found to be 4.26 RLU × 10^−5, the EC50 turned out to be 13.4 nM, the “% GPCR/total” value is on record as 22% and the “Signal: background with GIP” value is listed as 113.4.

B11: Mt-clytin K168G: Mitochondrial K168G modified Clytin, SEQ ID NO:16 (protein)
chain: MSVLTPLLLRGLTGSARRLPVPRAKIHSLPPEGKLRPNFDNPKWVNRHKFMFNFLDINGDGKITLDEIVSKASDDICAKLGATPEQTKRHQDAVEAFFKKIGMDYGKEVEFPAFVDGWKELANYDLKLWSQNKKSLIRDWGEAVFDIFDKDGSGSISLDEWKAYGRISGICSSDEDAEKTFKHCDLDNSGGLDVDEMTRQHLGFWYTLDPNADGLYGNFVP
B11: the EC50 in experiment [1] was determined as 232 nM. Moreover, in the experiment with GIP Receptor, the “Max signal with GIP (RLU × 10^−5)” value worked out at 5.09 RLU × 10^−5, the concentration for a half-maximal effect (EC50) was 15.1 nM, the “% GPCR/total” value is reported as 19.3% and the “Signal: background with GIP” value is 146.8.
